Source: patent publication US20030235860A1, “Interactions between AR, ER, TR2, and TR4” (priority 1999, published 2003)

Columns and labels:
MCF7-TR2 cells = assay: Cell cycle profile by flow cytometry, MCF7-TR2 cells; format: cell-based; settings: 3 days, E2, or E2 with doxycycline-induced TR2
Experimental: (A) Growth assays were performed by MTT method as instructed by manufacturer (Sigma). 5×10^3 MCF7-pBIG and MCF7-TR2 cells were seeded in 24-well plates and incubated in RPMI with 10% CD-FCS for 48 h. […] After 3- and 5-day treatment, cells were harvested for MTT assay. Data represents the relative folds of MTT O.D.570 values at day 5 divided by that at day 3. […] Cells were then trypsinized and fixed overnight in 70% Ethanol. After cells were incubated with 1 mg/ml RNase A (Sigma) and propidium iodide (Roche Molecular Biochemicals), the DNA contents of cells were measured by a flow cytometry. (C) Percentage of growth suppression by TR2. MCF7-TR2 cells were seeded at 5×10^3 cells per well in 24-well plates. […] The treatments were changed every two days. The indices of cell growth were determined by MTT assay. The MTT values from cells without doxycycline were set as 100% in each kind of treatment. Values are represented by the percentage of growth suppression from cells with doxycycline to that without doxycycline.

TR2 = target: T1, TR2 (Homo sapiens, UniProt P13056); assay: TR2-mediated transactivation reporter assay; format: cell-based; settings: PC-3 cells; 1 μg expression plasmid
T1 sequence (P13056 1-603): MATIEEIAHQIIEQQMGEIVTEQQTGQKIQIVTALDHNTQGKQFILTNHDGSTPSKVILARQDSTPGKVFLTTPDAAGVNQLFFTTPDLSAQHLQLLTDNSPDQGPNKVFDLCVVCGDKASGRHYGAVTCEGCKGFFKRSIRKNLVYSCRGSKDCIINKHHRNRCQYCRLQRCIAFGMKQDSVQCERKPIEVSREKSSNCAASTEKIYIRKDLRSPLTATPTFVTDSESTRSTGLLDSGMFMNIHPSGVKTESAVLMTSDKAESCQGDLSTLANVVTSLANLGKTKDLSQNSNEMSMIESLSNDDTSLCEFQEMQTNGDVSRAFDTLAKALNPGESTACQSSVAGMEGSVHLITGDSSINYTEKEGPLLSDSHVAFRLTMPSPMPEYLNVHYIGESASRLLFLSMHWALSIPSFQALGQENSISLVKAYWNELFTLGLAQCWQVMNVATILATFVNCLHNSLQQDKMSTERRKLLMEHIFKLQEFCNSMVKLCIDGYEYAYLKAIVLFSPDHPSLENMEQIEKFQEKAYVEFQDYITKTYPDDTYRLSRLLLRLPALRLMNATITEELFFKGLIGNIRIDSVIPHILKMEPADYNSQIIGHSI
Experimental: Transfections and chloramphenicol acetyltransferase (CAT) assays were performed as described previously. Yeh, & Chang, Proc. Natl. Acad. Sci. 93, 5517-5521 (1996). Briefly, 4×10^5 cells were plated in 60-mm dishes and cultured for 24 h, and then the medium was changed to phenol red free DMEM with 5% charcoal-stripped FCS 2 h before transfection. The cells were co-transfected with TR2 and/or ER expression plasmids with 2 μg of TR2-TK-CAT reporter or 1 μg of ERE-CAT reporter gene plasmid, as indicated in the Figures, by using the calcium phosphate precipitation method. A β-gal actosidase expression plasmid, pCMV-β-gal, was transfected in all transfections as an internal control for normalizing transfection efficiency. The total amount of DNA was adjusted up to 10.5 μg with parent vectors, pSG5 or pCMV in each transcriptional activity assay. […] The cells were then harvested and whole cell extracts were used for CAT assay. The CAT activity was quantitated by Phosphorlmager (Molecular Dynamics). Data are presented as means±S.D. of at least three independent experiments.
The CAT reporter assay was used to study the potential consequence of the formation of heterodimers between the TR2 and ER. […] More specifically, H1299 cells were transiently cotransfected with 2 μg of DR4-TK-CAT reporter plasmid and 3 μg of TR2 expression plasmid together with increasing amounts of the ER expression vector. […] Cells were also transfected with internal control reporter plasmid, pCMV-β-gal, as an internal control for transfection efficiency. Luciferase activity was then analyzed following manufacturer's instructions (Promega). […] Similar results were obtained when the DR4-TK-CAT reporter with DR1-HBV-LUC were replaced, another TR2 response element (FIG. 7C).
This conclusion was further confirmed by using the chimera receptor, TR2-androgen receptor (AR) ARp-TR2, which was generated by swapping TR2 proximal box (P-box) with that found in the AR. […] Luciferase activity was then analyzed following manufacturer's instructions (Promega). […]

B1: TR2: human testicular orphan nuclear receptor 2, 603 amino acids (protein, UniProt P13056 1-603, looked up)
chain: MATIEEIAHQIIEQQMGEIVTEQQTGQKIQIVTALDHNTQGKQFILTNHDGSTPSKVILARQDSTPGKVFLTTPDAAGVNQLFFTTPDLSAQHLQLLTDNSPDQGPNKVFDLCVVCGDKASGRHYGAVTCEGCKGFFKRSIRKNLVYSCRGSKDCIINKHHRNRCQYCRLQRCIAFGMKQDSVQCERKPIEVSREKSSNCAASTEKIYIRKDLRSPLTATPTFVTDSESTRSTGLLDSGMFMNIHPSGVKTESAVLMTSDKAESCQGDLSTLANVVTSLANLGKTKDLSQNSNEMSMIESLSNDDTSLCEFQEMQTNGDVSRAFDTLAKALNPGESTACQSSVAGMEGSVHLITGDSSINYTEKEGPLLSDSHVAFRLTMPSPMPEYLNVHYIGESASRLLFLSMHWALSIPSFQALGQENSISLVKAYWNELFTLGLAQCWQVMNVATILATFVNCLHNSLQQDKMSTERRKLLMEHIFKLQEFCNSMVKLCIDGYEYAYLKAIVLFSPDHPSLENMEQIEKFQEKAYVEFQDYITKTYPDDTYRLSRLLLRLPALRLMNATITEELFFKGLIGNIRIDSVIPHILKMEPADYNSQIIGHSI
modifications: full-length
notes: human testicular orphan nuclear receptor 2, 603 amino acids
Cells in G1 (MCF7-TR2 cells): 58.1%
Cells in S (MCF7-TR2 cells): 14.5%
DR1-HBV-LUC activity (TR2): induced
